From publication PMC2921665
Read-outs that look alike come from different tables or passages of the source.

Key:
[1] = target: T1, LexA (EMSA protein) (Escherichia coli, UniProt P0A7C2 1-202, K156A); test: EMSA
[2] = target: T1, LexA (EMSA protein); test: EMSA; remark: listed apart in the source

B1: -1 spacer (dsDNA)
DNA 1: GATGCCTGCGGATACTGTATATATTACAGTATCAATTCTGGCT
DNA 2: AGCCAGAATTGATACTGTAATATATACAGTATCCGCAGGCATC
Kd [1]: ~250 nM

B2: GC-repeat spacer (dsDNA)
DNA 1: GATGCCTGCGGATACTGTGCGCGCGCACAGTATCAATTCTGGCT
DNA 2: AGCCAGAATTGATACTGTGCGCGCGCACAGTATCCGCAGGCATC
Kd [1]: ~100 nM

B3: RecA SOS box (dsDNA)
DNA 1: GATGCCTGCGGATACTGTATGATCATACAGTATCAATTCTGGCT
DNA 2: AGCCAGAATTGATACTGTATGATCATACAGTATCCGCAGGCATC
Kd [2]: 1.67 ± 0.26 nM

B4: A-tract spacer (dsDNA)
DNA 1: GATGCCTGCGGATACTGTAAAAAAAAACAGTATCAATTCTGGCT
DNA 2: AGCCAGAATTGATACTGTTTTTTTTTACAGTATCCGCAGGCATC
Kd [2]: 5.64 ± 0.78 nM

B5: AT-repeat spacer (dsDNA)
DNA 1: GATGCCTGCGGATACTGTATATATATACAGTATCAATTCTGGCT
DNA 2: AGCCAGAATTGATACTGTATATATATACAGTATCCGCAGGCATC
Kd [2]: 0.8 ± 0.27 nM

B6: AT-GC spacer (dsDNA)
DNA 1: GATGCCTGCGGATACTGTATGCGCATACAGTATCAATTCTGGCT
DNA 2: AGCCAGAATTGATACTGTATGCGCATACAGTATCCGCAGGCATC
Kd [2]: 1.59 ± 0.3 nM

B7: TGC spacer (dsDNA)
DNA 1: GATGCCTGCGGATACTGTACGCGCGTACAGTATCAATTCTGGCT
DNA 2: AGCCAGAATTGATACTGTACGCGCGTACAGTATCCGCAGGCATC
Kd [2]: 2.4 ± 0.5 nM

B8: +1 spacer (dsDNA)
DNA 1: GATGCCTGCGGATACTGTATATATAATACAGTATCAATTCTGGCT
DNA 2: AGCCAGAATTGATACTGTATTATATATACAGTATCCGCAGGCATC
Kd [1]: ~200 nM
